Assay results: patent publication US9096835B2, “DNA polymerase” (Medical Research Council, priority 2003, dated 2015)

B1: 3A10: third round clone, abasic site bypass; SEQ ID NO: 86 (protein)
chain: MAMLPLFEPKGRVLLVDGHHLAYRTFFALKGLTTSRGEPVQVVYGFAKSLLKALKEDGYKAVFVVFDAKAPSFRHKAYEAYRAGRAPTPQDFPRQLALIKELVDLLGFTRLEVPGYEADDVLATLAKKAEKEGYEVRILTADRGLYQLVSDRVAVLHPEGHLITPEWLWEKYGLRPEQWVDFRALVGDPSDNLPGVKGIGEKTALKLLKEWGSLENLLKNLDRVKPENVREKIKAHLEDLRLSLELSRVRTDLPLEVDLAQGREPDREGLRAFLERLEFGSLLHEFGLLESPKALEEAPWPPPEGAFVGFVLSRKEPMWADLLALAAARGGRVHQAPEPYKALRDLKEARGLLAKDLSVLALREGLGLPPGDDPMLLAYLLDPSNTTPEGVARRYGGEWTEEAGERAALSERLFANLWGRLEGEERLLWLYREVERPLSAVLAHMETTGVRLDVAYLRALSLEVAEEIARLEAEVFRLAGRPFNLNSRDQLERVLFDELGLPAIGKTEKTGKRSTSAAVLEALREAHPIVEKILQYRELTKLKSTYIDPLPDLIHPRTGRLHTRFNQTATATGRLSSSDPNLQNIPVRTPLGQRIRRAFIAEEGWLLVVLDYSQMELRVLAHLSGDENLIRVFQEGKDIHTQTASWMFGVPPEAVDPLMRRAAKTVNFGVLYGMSAHRLSQELSIPYEEAVAFIERYFQSFPKVRAWIEKTLEEGRRRGYVETLFGRRRYVPDLNARMKSVRGAAERMAFNMPVQGTAADLMKLAMVKLFPRLREMGARMLLQVHDELLLEAPQARAEEVAALAKEAMEKAYPLAVPLEVEVGIGEDWLSAKE
modifications: Mutant Taq polymerase
B2: 3D1: third round clone, four mismatch extension; SEQ ID NO: 98 (protein)
chain: MAMLPLFEPKGRVLLVDGHHLAYRTFFALKGPTTSRGEPVQVVYGFAKSLLKALKEDGYKAVFVVFDAKAPSFRHKAYEAYRAGRAPTPEDFPRQLALIKELVDLLGFTRLEVPGYEADDVLATLAKKAEKEGYEVRILTADRGLYQLVSDRVAVLHPEGHLITPEWLWEKYGLRPEQWVDFRALVGDPSDNLPGVKGIGEKTALKLLKEWGSLENLLKNLDRVKPENVREKIKAHLEDLRLSLELSRVRTDLPLEVDLAQRREPDREGLRAFLERLEFGSLFHEFGLLESPKALEEAPWPPPEGAFVGFVLSRKEPMWADLLALAAARGGRVHRAPEPYKALRDLKEARGLLAKDLSVLALREGLGLPPGDDPMLLAYLLDPSNTTPEGVARRYGGEWTEEAGERAALSERLFANLWGRLEGEERLLWLYREVERPLSAVLAHMEATGVRLDVAYLRALSLEVAEEIARLEAEVFRLAGHPFNLNSRDQLEMVLFDELRLPALGKTQKTGKRSTSAAVLEALREAHPIVEKILQYRELTKLKSTYIDPLSDLIHPRTGRLHTRFNQTATATGRLSSSDPNLQNIPVRTPLGQRIRRAFIAEEGWLLVVLDYSQIELRVLAHLSGDENLIRVFQEGRDIHTETASWMFGVPREAVDPLMRRAAKTINFGVLYGMSAHRLSQELAIPYEEAQAFIERYFQSFPKVRAWIEKTLEEGRRRGYVETLFGRRRYVPDLEARVKSVREAAERMAFNMPVQGTAADLMKLAMVKLFPRLGETGARMLLQVHDELVLEAPKERAEAVARLAKEAMEGVYPLAVPLEVEVGIGEDWLSAKG
modifications: Mutant Taq polymerase

What was measured:
[1] = tested on: primers with an abasic site seven bases from their 3′ end; assay: Abasic site bypass in PCR; format: biochemical; conditions: 176 bp product, 20 cycles of PCR
Description: FIG. 10. A list of polymerases selected to extend four mismatches were assayed for their ability to extend abasic sites in PCR. Primers with an abasic site seven bases from their 3′ end were designed. Such primers will prevent exponential amplification of the target sequence, restricting it to […] amplification, unless the abasic site is bypassed. […] (A) Screen which identified clone A10. (B) A further 4 polymerases that display good abasic site bypass. Lane M: markers, Hae III digest of Φ X174.
A list of polymerases selected to extend four mismatches were assayed for their ability to extend abasic sites in PCR (FIG. 10).

[2] = tested on: abasic sites and 5-hydroxy hydantoins; assay: Hairpin ELISA lesion bypass screen; format: biochemical; conditions: ELISA based activity screen
Excerpt: The below protocol is a sensitive method to measure polymerase activity both for the incorporation of unnatural nucleotide substrates (added to the reaction mixture) or the extension or replication of unnatural nucleotide substrates (incorporated as part of the hairpin oligo).
The assay comprises a hairpin oligonucleotide which constitutes both primer and template in one. In contains as part of the hairpin a biotinylated dU residue, which allows capture of the hairpin oligonucleotide on streptavidin-coated surfaces.
The oligonucleotide folds up into a hairpin with a 5′ overhang, which serves as the template strand for the polymerase (typical sequence: 5′-AGCTACCATGCCTGCACGCAGTCGGCATCCGTCGCGACCACG TT5 TTCGTGGTCGCGACGGATGCCG-3′ (SEQ ID NO: 52), bases involved in hairpin formation are underlined, 3′ base is in bold, 5=dU-biotin).
Extension reactions are carried out in the presence of small amounts of a labelled nucleotide typically DIG-16-dUTP. Product is captured (for example on a streptavidin coated ELISA plate) and incorporation of labelled nucleotide into the product strand is measured (using for example an anti-DIG antibody) and taken as a measure of polymerase activity. […]

Molecule	amplification product in PCR with abasic site primers [1]	proficiency at lesion bypass compared with wild type Taq [2]
B1	produced an amplification product	up to two orders of magnitude
B2	produced an amplification product	up to two orders of magnitude
